Laboratory results: patent US20250154276A1 (ZONHON BIOPHARMA INSTITUTE, published 2025)
Numbering of substitutions follows the chain as printed.

B1: ZA23 (bispecific antibody, human IgG1, kappa)
heavy 1: QVQLVQSGAEVVKPGASVKISCKASGFNIKDTYIYWVRQRTGQGLEWIGRIEPMNGNTKYDPKFQGRLTMTANTSKNTAYLQLSSLTSEDTAVYYCSRGGWLLLYVMDYWGQGTTVTVSSASTKGPSVFPLAPSSKSTSGGTAALGCLVKDYFPEPVTVSWNSGALTSGVHTFPAVLQSSGLYSLSSVVTVPSSSLGTQTYICNVNHKPSNTKVDKKVEPKSCDKTHTCPPCPAPEFLGGPSVFLFPPKPKDTLMISRTPEVTCVVVDVSQEDPEVQFNWYVDGVEVHNAKTKPREEQFNSTYRVVSVLTVLHQDWLNGKEYKCKVSNKGLPSSIEKTISKAKGQPREPQVYTLPPCQEEMTKNQVSLWCLVKGFYPSDIAVEWESNGQPENNYKTTPPVLDSDGSFFLYSRLTVDKSRWQEGNVFSCSVMHEALHNHYTQKSLSLSLGK
light 1: DIVMTQSASSLPVTPGEPASISCRSDKSLLHSNGNTYLYWFLQKPGQSPQVLIYRMSNLASGVPDRFSGSGSGTDFTLTISRVEAEDVGVYYCFQQLEYPYTFGQGTKLEIKRTVAAPSVFIFPPSDEQLKSGTASVVCLLNNFYPREAKVQWKVDNALQSGNSQESVTEQDSKDSTYSLSSTLTLSKADYEKHKVYACEVTHQGLSSPVTKSFNRGEC
heavy 2: DVQLVQSGAEVKKPGASVKVSCKASGYTFTRYTMHWVRQAPGQGLEWIGYINPSRGYTNYADSVKGRFTITTDKSTSTAYMELSSLRSEDTATYYCARYYDDHYCLDYWGQGTTVTVSSASTKGPSVFPCAPSSKSTSGGTAALGCLVKDYFPEPVTVSWNSGALTSGVHTFPAVLQSSGLYSLSSVVTVPSSSLGTQTYICNVNHKPSNTKVDKKVEPKSSDKTHTCPPCPAPEFLGGPSVFLFPPKPKDTLMISRTPEVTCVVVDVSQEDPEVQFNWYVDGVEVHNAKTKPREEQFNSTYRVVSVLTVLHQDWLNGKEYKCKVSNKGLPSSIEKTISKAKGQPREPQVCTLPPSQEEMTKNQVSLSCAVKGFYPSDIAVEWESNGQPENNYKTTPPVLDSDGSFFLVSRLTVDKSRWQEGNVFSCSVMHEALHNHYTQKSLSLSLGK
light 2: DIVLTQSPATLSLSPGERATLSCRASQSVSYMNWYQQKPGKAPKRWIYDTSKVASGVPARFSGSGSGTDYSLTINSLEAEDAATYYCQQWSSNPLTFGGGTKVEIKRTVAAPSVFICPPSDEQLKSGTASVVCLLNNFYPREAKVQWKVDNALQSGNSQESVTEQDSKDSTYSLSSTLTLSKADYEKHKVYACEVTHQGLSSPVTKSFNRGES
B2: ZA16 (bispecific antibody, human IgG1, kappa)
heavy 1: not shown
light 1: B1 light 1 with A8P, P12S, P18R, A19V
heavy 2: not shown
light 2: B1 light 2
B3: 18G272 (bispecific antibody)
chain: DIVMTQSASSLPVTPGEPASISCRSDKSLLHSNGNTYLYWFLQKPGQSPQVLIYRMSNLASGVPDRFSGSGSGTDFTLTISRVEAEDVGVYYCFQQLEYPYTFGQGTKLEIKGGGGSGGGGSGGGGSQVQLVQSGAEVVKPGASVKISCKASGFNIKDTYIYWVRQRTGQGLEWIGRIEPMNGNTKYDPKFQGRLTMTANTSKNTAYLQLSSLTSEDTAVYYCSRGGWLLLYVMDYWGQGTTVTVSSGGGGSDVQLVQSGAEVKKPGASVKVSCKASGYTFTRYTMHWVRQAPGQGLEWIGYINPSRGYTNYADSVKGRFTITTDKSTSTAYMELSSLRSEDTATYYCARYYDDHYCLDYWGQGTTVTVSSGGGGSGGGGSGGGGSDIVLTQSPATLSLSPGERATLSCRASQSVSYMNWYQQKPGKAPKRWIYDTSKVASGVPARFSGSGSGTDYSLTINSLEAEDAATYYCQQWSSNPLTFGGGTKVEIK
B4: 19G294 (bispecific antibody)
chain: DIVMTQSPSSLSVTPGERVSISCRSDKSLLHSNGNTYLYWFLQKPGQSPQVLIYRMSNLASGVPDRFSGSGSGTDFTLTISRVEAEDVGVYYCFQQLEYPYTFGQGTKLEIKGGGGSGGGGSGGGGSEVQLVQSGAELVKPGASVKLSCAASGFNIKDTYIYWVRQAPGQGLEWVGRIEPMNGNTKYDPKFQGRFTMTANTSKNTAYLQLSSLRSEDTAVYYCSRGGWLLLYVMDYWGQGTLVTVSSGGGGSDVQLVQSGAEVKKPGASVKVSCKASGYTFTRYTMHWVRQAPGQGLEWIGYINPSRGYTNYADSVKGRFTITTDKSTSTAYMELSSLRSEDTATYYCARYYDDHYCLDYWGQGTTVTVSSGGGGSGGGGSGGGGSDIVLTQSPATLSLSPGERATLSCRASQSVSYMNWYQQKPGKAPKRWIYDTSKVASGVPARFSGSGSGTDYSLTINSLEAEDAATYYCQQWSSNPLTFGGGTKVEIK

Tests used:
[1] = target: T1, human CD26 (human, UniProt P27487 1-766); assay: cell-based or functional assay
[2] = target: T1, human CD26; assay: cell-based or functional assay; remark: listed apart in the source

| Binder | IC50 values (pM) of different bispecific antibodies mediating PBMC cytotoxicity to OS-RC-2 [1] [pM] | IC50 values (pM) of different bispecific antibodies mediating PBMC cytotoxicity to different target cells (786-0) [2] [pM] | IC50 values (pM) of different bispecific antibodies mediating PBMC cytotoxicity to different target cells (NCI-H226) [2] [pM] | IC50 values (pM) of different bispecific antibodies mediating PBMC cytotoxicity to different target cells (OS-RC-2) [2] [pM] | IC50 values (pM) of different bispecific antibodies mediating PBMC cytotoxicity to different target cells (PC-3) [2] [pM] |
| --- | --- | --- | --- | --- | --- |
| B1 | 87.5 |  |  |  |  |
| B2 | 5.8 |  |  |  |  |
| B3 |  | 41.4 | 2.6 | 5.2 | 6.9 |
| B4 | 9.9 | 4.7 | 13.7 | 9.9 | 4 |
